Assay results from the DeepSol protein solubility set.

Experiment: soluble on expression in E. coli; label from the status in PepcDB or PDB records
In the case of “MQDEFYMARALKLAQRGRFTTHPNPNVGCVIVNNGDIVGEGYHHRAGEPHAEVHALRMAGAKAKGATAYVTLEPCSHHGRTPPCCDALIAAGVARVVAAMQDPNPQVAGRGLYRLQQAGIAVSHGLMMSEAEALNKGFLKRMRTGFPYLQLKLGASVDGRTAMASGESQWITSPQARRDVQRLRAQSHAILTSSATVLADDPALTVRWAELDASTQASYPQENLRQPVRIVIDSQNRVTPAHRIVQQPGETWIARTQEDSRAWPDAVRTISVPAHNGHLDLVVLMMQLGRQQINSIWVEAGPGLAGALLQAGLVDELIVYVAPKLLGTQARGLCELPGLEKLADAPQFTFSEIRHVGPDVCLHMVSA”, the “soluble on expression in E. coli” value is reported as “soluble”. In the case of “MIILKLEDSWGFQISKIAQEMDSQFSKKLTKYDIGSREYGILLTIHQYALLTQLKIGELNKVDRTTIGQLVDLLERKDFVARQKNPKDRRQNLLVLTKTGRSLAEEMWQEMKEIEKDVLKHLSAKQKETLLTMVKAIRKGELN”, the “soluble on expression in E. coli” value is reported as “not soluble”. In the case of “MRLGVNVDHVATVRQARRTFEPSPVFAALIAQQAGADQITLHLREDRRHIQDRDLELIKELITIPVNLEMAPTEEMREIALRVKPDRITLVPERREEITTEGGLDVVSLKEKLKEYLKPIKEAGIEVSLFIEAQKEQIDASVEVGADAIEIHTGRYANLWNEHRFEEAKEELNRIKEAAIYAKEKGLKVYAGHGLTYHNVKDFVRELKGYVEELNIGHSIVANAVIFGFERAVKEMLNLIKT”, the “soluble on expression in E. coli” value is reported as “soluble”. With “METLIAISRWLAKQHVVTWCVQQEGELWCANAFYLFDAQKVAFYILTEEKTRHAQMSGPQAAVAGTVNGQPKTVALIRGVQFKGEIRRLEGEESDLARKAYNRRFPVARMLSAPVWEIRLDEIKFTDNTLGFGKKMIWLRDSGTEQA” the “soluble on expression in E. coli” value was “soluble”. For “MTKKALSAVILAAGKGTRMYSDLPKVLHTIAGKPMVKHVIDTAHQLGSENIHLIYGHGGDLMRTHLANEQVNWVLQTEQLGTAHAVQQAAPFFKDNENIVVLYGDAPLITKETLEKLIEAKPENGIALLTVNLDNPTGYGRIIRENGNVVAIVEQKDANAEQLNIKEVNTGVMVSDGASFKKWLARVGNNNAQGEYYLTDLIALANQDNCQVVAVQATDVMEVEGANNRLQLAALERYFQNKQASKLLLEGVMIYDPARFDLRGTLEHGKDVEIDVNVIIEGNVKLGDRVKIGTGCVLKNVVIGNDVEIKPYSVLEDSIVGEKAAIGPFSRLRPGAELAAETHVGNFVEIKKSTVGKGSKVNHLTYVGDSEIGSNCNIGAGVITCNYDGANKFKTIIGDDVFVGSDTQLVAPVKVANGATIGAGTTITRDVGENELVITRVAQRHIQGWQRPIKKK”, the “soluble on expression in E. coli” value was “soluble”. For “NDDIIVNWVNRTLSEAGKSTSIQSFKDKTISSSLAVVDLIDAIQPGCINYDLVKSGNLTEDDKHNNAKYAVSMARRIGARVYALPEDLVEVKPKMVMTVFACLMGRGMKRV”, the “soluble on expression in E. coli” value was “soluble”. With “MADSPNRLNRAKIDSTTMKDPRVLNNLKLRELLLPKFTSLWEIQTEVTVDNRTILLTWMHLLCESFELDKSVFPLSVSILDRYLCKKQGTKKTLQKIGAACVLIGSKIRTVKPMTVSKLTYLSCDCFTNLELINQEKDILEALKWDTEAVLATDFLIPLCNALKIPEDLWPQLYEAASTTICKALIQPNIALLSPGLICAGGLLTTIETDNTNCRPWTCYLEDLSSILNFSTNTVRTVKDQVSEAFSLYDLEIL” the “soluble on expression in E. coli” value was “soluble”. In the case of “MKLMDVHVLFSGGKDSSLSAVILKKLGYNPHLITINFGVIPSYKLAEETAKILGFKHKVITLDRKIVEKAADMIIEHKYPGPAIQYVHKTVLEILADEYSILADGTRRDDRVPKLSYSEIQSLEMRKNIQYITPLMGFGYKTLRHLASEFFILEEIKSGT”, the “soluble on expression in E. coli” value is reported as “not soluble”. In the case of “MAGDPMNSLIDRRLNGRNKSAVNRERFLRRYKDQIRKAVQDLIRERSISDMDQGGEINLPARDISEPSFRHGEGGDREIVHPGNREFAKGDTFDRPQGGDGGSGSQPGEGESVDQFTFSLSRAEFLNLFFEDLELPHLARTQLGDVKQQRWHRAGYTTTGSPSMLSVNRTLKASLSRRVALGVGARAALDAAEQELEAARDAGAPQAELDRLLAEVEKCAARVARVPFLDDLDLRYRNRVAVAVPMARAVMFCLMDVSGSMDEMKKDLAKRFFTLLYMFLSRKYEHVDVIFIRHTDNAEEVDEQTFFYDPKSGGTIVLSALELMHEIVQKRYSPATWNIYAAQASDGDSFGADAGKSARFLAENLLPATRYFAYIEVPDSQEARKSSLWAEYEQESASHFVMRRICERGEIFPVFHDLFKKETVLEHHHHHH”, the “soluble on expression in E. coli” value is reported as “soluble”. With “MQEESYYNLTVGDTHDRLHNFQITVDTDYRNFVQLVNTMRSPNIAQQDRAFLQLQQLGLQHPDYIRKARVPETMRQFAEGAAGKRRIRSCHGTYLHWYDEGLKVDMKSGEAGTCENWIIEDWNEKVVFRAVDPRGKYLRACLGSNQLTLVYIPEPTELWSPFENGNGTWSFLSSNGTWLSAHEDGQVCTVKDRQACEEFLLESW” the “soluble on expression in E. coli” value was “not soluble”. With “MKRQLILEDGTVLIGTGFGGEIEKSGEVVFTTGMTGYQETLSDPSYCGQIVTFTYPLIGNYGINRDDFESIHPSVNGLIVNEICDHPSNFRNEISLNDYLKERNIPGLAGIDTRKLTRKIRQYGTLRGRLCNMDADVEYIVSQLKATVFTDHVKRVSTKDPYPSPGRGHRVVLVDFGMKHGILRELNKRDCDVIVVPYNTTAEEILRLSPDGIMLSNGPGDPKDVPEAIEMLKDIIGKVPLFGICLGHQLFALASGANTSKLKFGHRGLNHPVKNIATGKVAITSQNHGYAVEEESVENTELEITHVALNDGTVEGLRHKKFPAFTVQYHPEASAGPEDANDLFEDFLTMIENFKKEGEELCQNA” the “soluble on expression in E. coli” value was “not soluble”. In the case of “MPWWEQNIGMGGGALSAKQQTSADSRTESLQSLSDERRDFIQKSLDAWCANLGYKDSTVNMLTLSRTLCISKDELSVFFDQYLKTTFRIWLGDIRFNAAKKMMLEFPDYSNDIISAECGFSARTYLYRIFKSKEGCTPTEWREEQVANAAPDDKKQD”, the “soluble on expression in E. coli” value is reported as “not soluble”. For “MNSFYSQEELKKIGFLSVGKNVLISKKASIYNPGVISVGNNVRIDDFCILSGKVTIGSYSHIAAYTALYGGEVGIEMYDFANISSRTIVYAAIDDFSGNALMGPTIPNQYKNVKTGKVILKKHVIIGAHSIIFPNVVIGEGVAVGAMSMVKESLDDWYIYVGVPVRKIKA”, the “soluble on expression in E. coli” value was “soluble”. For “MGSDKIHHHHHHESEDPWLVLQKAARAAHELSYKGVFIYQAGDNIKSVQITHTNSGQGEYARMVVLDGAPREVLSQGGDVVIFSSKNEKVIMEKRRAHNLFPAVLPDDMELLKANYQARIGGTERIAGRAGRVVFLDPRDGLRYAYKFWADCEYGLLLKSLMLSEQKQMLEQMAFSQLNMMEEQGMDWFHPSVDHSKHYILEEANAQLVQEASNWTVGALPVGYRKVEQVTRLVPGKSAPVTQVIFTDGLASVSLFIEPLSKGVRPRIGQTSKGATHFYANVSKGHQILVVGEVPAATVAQIGSAVSFK”, the “soluble on expression in E. coli” value was “not soluble”. With “MSRKNILQGLMAGTPSPAPAAAERPRATKGAIGAVSRSIADLKARAVIEVDPFLIDAGGLQDRLESDAAEDAELARSIATYGQQVPVLVRPHPTDENRFQIVYGRRRVLALRDLGQPVKALVRDLDDREAVLAQGQENTARRDLSFIEKVNFARQMADAGYDRKAICDALSVDKTLISRMVSVSERVPVALIEAIGAASGIGRDRWLALAELMEKTDDDLDTLISTMSLTAEGQGSDQRFEALFSYLSGQRRREPPAPLRTEPITGHDGRPLGDVSRGAASVVLRLRRSHAKGFEEWLLQNLPDLHRSWQSDRNGK” the “soluble on expression in E. coli” value was “not soluble”. In the case of “MRKISYRFVYNRKKSLNDRGTALVQVEAYLNKKKVYFSTHVYLRPEQWDVKRKIIKDHPNQDALNGMLNEFIIELEKKELSLWRQGKTITLSLIKEEFKSNTDASFLGFARKEIMSSQLKDSTKRNHLTTISLLQSFKPTIEFEDLTYNFVTDFEKNLYESGYQTNTVAKHMKHLKSFVNAAINKGYIDPNNYAFRRYKIKMKEGKHVFLLPEEMKKLEEVSLTGRNSCLEHTLDAFLFCCYTGLRYSDFVNLNEKNIVKMDGKLWLIFDSVKTGTEVKLPLNLLFEGKALTLLQKYQGKWSSFFSIK”, the “soluble on expression in E. coli” value is reported as “not soluble”. With “MGSDKIHHHHHHMSTSPLYYAKKTQELCALSDVYITLNRMLSSDGCSLEQLADAIAYEPAIAASILKIANSAMFSMPRKIDSLSKALTILGIKEVKKLVNAYGITAAFSNLDPNVVDMDKFWEISVDCALICQYFAKNKQIPNTDNIFLSGLFHNLGMLAMISSEPAKVRYCEGYDRDETPWFRQNQVFGFTFADCTTELLKLWDLPDSIIQPIAEFNGAEHEPLPDNSKLLYMASRLAVINADPGLYAKEALIDKAILDDLGIESSDMSQSLEYCNEQAMELLATFPIQGRKSSE” the “soluble on expression in E. coli” value was “not soluble”. For “MASETVSNHQEKALALLQADAEKILRLIKVQMDHLTMPQCPLYEEVLDTQMFGLSREVDFAVRLGLIAEEQGKVMLGELERELSALHEAFTNKQQ”, the “soluble on expression in E. coli” value was “not soluble”. For “MEYIKRKKTRKVRVGDIYIGGDAKITVQSMTNTDTRDVEATVNQIKMLEDIGCDIIRVAVVDQEAAEAIKEIKKSIKIPLVADIHFDYRLAISSMENGADKIRLNPGNIGDRERVRKVVEVAKSRQIPIRIGVNSGSLEKNVIEKYGGITPEAMVESALQHVRILEELDFYDIVISLKASSVPMTIAAYRLMSEKTDYPLHIGVTEAGTVFKGTIKSCAGLGCLLAEGIGDTIRVSLTGDPKEEVLVGHELLRALGIEKGGIELVSCPTCGRCQIDLIGIAEKVEERLEGLDKNIKVAIMGCAVNGPGEAKEADIGIAGGKGEVLLFKKGVIVRKIPQERAVEELMEEILRM”, the “soluble on expression in E. coli” value was “soluble”. For “MAPLFAVTLYEFKAERDDELDVSPGENLSICAHYDYEWFIAKPINRLGGPGLVPVSYVRIIDLMDPAKYASVDTYDREQVMKIIDEFKIPTVEQWKDQTRRYKESSIQIGNGHGQSQGLE”, the “soluble on expression in E. coli” value was “soluble”. In the case of “MVEIYLFVNPLGGVCLEIEKEIIQLSVNDKKKIQLRFIPLLNMKTINEFLSRQHIPINDIKRRNRIFEDLYSAALDYKAAQLQGRKKGRQLLIGLQKAVAEDGLAYSPELSEELLLAAGGDIDMYRKDRQSDFVKESFQTDQKVAREMGIKQHPTAVVYNYTCENDFGILVENFENMDEIKQLCRVHPHNEPLLNQGDATFEFKRRSNYHFPNGHLHLL”, the “soluble on expression in E. coli” value is reported as “not soluble”. In the case of “MGSDKIHHHHHHAIVSAKWERTSSLQGIQLKQASIEGLFGGKQSISILTIGRAEGYTAFIATTDSLTTTSQLAEQSRSSAAINGSYFSIKEGFSTCYLRKNEAVIDTTTTEERHLRVNGAVHMVDNNIRIIPWNDENEKKGFPLDGDILASGPLLMQDGKTCDFTTIDREFSETRHPRSAIALTKEGDIMLVAVDGRAEGHADGMSIAELAYLLRILKAHCALNLDGGGSTTLWVNGQVVNHPSDNKKFDNKGERKVHNIIAVRRLTNP”, the “soluble on expression in E. coli” value is reported as “not soluble”. In the case of “AHHHHHHGSLEKLLEQAGIKLDFDGEEEKKSEIVDEFSGYKINIAVVGVGGSGNNTISRLYDLGVQGADLIAMNTDAQHLAITKAHKKVLLGKHITQGKGSGGDPKVGYLAAEASAQEIAAAVDGYDLVFITAGMGNGTGTGAAPVVARIVKETARNNGRFQEPLVVSVVTFPFKTEGTVRIEKAKWGIQRLLEYSDTVIIIQNDKLLELVPKLPLQSAFRFADELIARMVKGIVETIKLNSIVNIDFADVYSIMKGGGPALIGIGESDSNNRAVDAVNNALTNKMLDVEFGSGEKALVHFTIGPDVSLEEINKAMEVVYEKLSEKSEIKWGAMVDPEMGKTVRAMVIMTGVRSPYILGNVNALTDSSSWVVPKDRRLIGDPRIEKMFPDFNGSRAGRKRPSVGDAILKELGFKEL”, the “soluble on expression in E. coli” value is reported as “soluble”.
